Where a chain is given by its changes, count along the chain named. Names may count otherwise.
B1: NaKΔ18 C-DI (domain or fragment, Bacillus cereus, UniProt Q81HW2 19-114, looked up)
chain: WKDKEFQVLFVLTILTLISGTIFYSTVEGLRPIDALYFSVVTLTTVGCDISPQTDFGKIFTILYIFIGIGLVFGFIHKLAVNVQLPSILSNRKKE
B2: NaKΔ18 C-DI F92A (domain or fragment, Bacillus cereus, UniProt Q81HW2 19-114, looked up)
chain: B1 chain with F73A
B3: NaKΔ18 S-DI (domain or fragment, Bacillus cereus, UniProt Q81HW2 19-114, looked up)
chain: B1 chain with C48S

Columns and labels:
[1] = biological target: NaKΔ18 S-ELM (Bacillus cereus) (UniProt Q81HW2); assay: crystal structure
[2] = biological target: the molecule itself; assay: crystal structure

Molecule	stoichiometry N [1]	stoichiometry N [2]
NaKΔ18 S-ELM (from UniProt Q81HW2 19-114) (domain or fragment)	4	
B1		4
B2		4
B3		4

— publication doi:10.1101/2022.08.08.502946 (bioRxiv, 2022)
